Measurements reported in US20260242839A1, “GLYCOSIDE PRODUCT BIOSYNTHESIS AND RECOVERY” (Manus Bio Inc., priority 2023, published 2026).

Experiments:
Format in all cases: cell-based, E. coli
steviol glycoside [1] = assay: steviol glycoside bioconversion with complemented sucrose synthases in chassis strain; details: chassis strain with UGT SEQ ID NOS: 15 and 25, stevia leaf extract, glucose fed, 37° C., 48 hr, FIG. 3
Description: Strains were created that expressed candidate sucrose synthase enzymes, which may improve UDP-glucose availability when fed sucrose. Expression of a sucrose synthase enables splitting of sucrose into fructose and glucose. Glucose can be funneled towards UDP-glucose biosynthesis. […] Genes were complemented on plasmid. Fold improvement is with respect to total steviol glycoside conversion. Stevia leaf extract, sucrose, and glucose were fed to the bioconversion strains. Bioconversion took place at 37° C. for 48 hr. Data were quantified by reverse phase LC DAD to quantify conversion of steviol glycosides.

steviol glycoside [2] = assay: steviol glycoside bioconversion with overexpressed genes complemented on plasmid; details: chassis strain with UGT SEQ ID NOS: 14 and 24; stevia leaf extract and glucose fed; 37° C., 48 hr; FIG. 2
Method: Other bacterial genes were overexpressed, and bioconversion tested as compared to the chassis strain expressing UGT enzymes of SEQ ID NOS: 14 and 24. […] Fold improvement is with respect to total steviol glycoside conversion. Stevia leaf extract and glucose were fed to the bioconversion strains. Bioconversion took place at 37° C. for 48 hr. Data were quantified by reverse phase LC DAD to quantify conversion of steviol glycosides.

Mog. II-E = assay: production of Mog.III or siamenoside from Mog. II-E; details: 37° C., 48 hr; FIG. 19
Method: II-E. In the experiment, engineered E. coli strains expressing UGT enzymes SEQ ID NO: 72, SEQ ID NO: 54 or SEQ ID NO: 13 were grown in fermentation media containing Mog. II-E at 37° C. for 48 hr. Products were quantified by LCMS/MS with authentic standards of each compound. […] IIE to Mog.III.

Mog. IIE or Mog. IE = assay: branched glycosylation reactions by cells expressing UGT enzymes; details: Mog. IIE or Mog. IE fed; 37° C., 48 hr; LC-MS/MS
Method: Mog. IIE or Mog. IE was fed to cells expressing various UGT enzymes. Reactions were incubated at 37° C. for 48 hr. Products were quantified by LC-MS/MS with authentic standards of each compound. “Indirect” evidence means that consumption of substrate was observed.

Q: Which “improvement of total steviol glycoside conversion by sucrose synthase” value (shortened to “improvement … by sucrose synthase”) (steviol glycoside [1]) does the source give for “SEQ ID NO: 2: sucrose synthase, Solanum tuberosum (StSus2)” here?
A: dramatic improvements in glycosylation

Q: With “SEQ ID NO: 3: sucrose synthase, Solanum tuberosum (StSus2_S11E)” as the molecule, how does the “improvement … by sucrose synthase” value (steviol glycoside [1]) read?
A: dramatic improvements in glycosylation

Q: With “SEQ ID NO: 6: sucrose synthase, Arabidopsis thaliana (AtSus1)” as the molecule, how does the “improvement … by sucrose synthase” value (steviol glycoside [1]) read?
A: dramatic improvements in glycosylation

Q: “SEQ ID NO: 7: sucrose synthase, Arabidopsis thaliana (AtSus3)” was tested. Which “improvement … by sucrose synthase” value (steviol glycoside [1]) did it give?
A: dramatic improvements in glycosylation

Q: Which “improvement … by sucrose synthase” value (steviol glycoside [1]) does the source give for “SEQ ID NO: 8: sucrose synthase, Vigna radiate (VrSS1)” here?
A: dramatic improvements in glycosylation

Q: “SEQ ID NO: 9: sucrose synthase, Vigna radiate (VrSS1_S11E)” was tested. Which “improvement … by sucrose synthase” value (steviol glycoside [1]) did it give?
A: dramatic improvements in glycosylation

Q: “SEQ ID NO: 10: sucrose synthase, Glycine Max (GmSS)” was tested. Which “improvement … by sucrose synthase” value (steviol glycoside [1]) did it give?
A: dramatic improvements in glycosylation

Q: With “SEQ ID NO: 11: sucrose synthase, Glycine Max (GmSS_S11E)” as the molecule, how does the “improvement … by sucrose synthase” value (steviol glycoside [1]) read?
A: dramatic improvements in glycosylation

B1: ndk: E. coli ndk (nucleoside diphosphate kinase), complemented on plasmid (protein, listed as Escherichia coli)
chain: MAIERTFSIIKPNAVAKNVIGNIFARFEAAGFKIVGTKMLHLTVEQARGFYAEHDGKPFFDGLVEFMTSGPIVVSVLEGENAVQRHRDLLGATNPANALAGTLRADYADSLTENGTHGSDSVESAAREIAYFFGEGEVCPRTR
Q: With B1 as the molecule, how does the “improvement of total steviol glycoside conversion by gene complementation” value (steviol glycoside [2]) read?
A: improved overall glycosylation

B2: SEQ ID NO: 54: UGT enzyme (Ziziphus jujube) (protein, listed as Ziziphus jujuba)
chain: MMERQRSIKVLMFPWLAHGHISPFLELAKRLTDRNFQIYFCSTPVNLTSVKPKLSQKYSSSIKLVELHLPSLPDLPPHYHTTNGLALNLIPTLKKAFDMSSSSFSTILSTIKPDLLIYDFLQPWAPQLASCMNIPAVNFLSAGASMVSFVLHSIKYNGDDHDDEFLTTELHLSDSMEAKFAEMTESSPDEHIDRAVTCLERSNSLILIKSFRELEGKYLDYLSLSFAKKVVPIGPLVAQDTNPEDDSMDIINWLDKKEKSSTVFVSFGSEYYLTNEEMEEIAYGLELSKVNFIWVVRFPLGQKMAVEEALPKGFLERVGEKGMVVEDWAPQMKILGHSSIGGFVSHCGWSSLMESLKLGVPIIAMPMQLDQPINAKLVERSGVGLEVKRDKNGRIEREYLAKVIREIVVEKARQDIEKKAREMSNIITEKGEEEIDNVVEELAKLCGM
Q: B2 was tested. Which “bioconversion of Mog. IIE to Mog.III” value (Mog. II-E) did it give?
A: able to catalyze bioconversion of Mog. IIE to Mog.III

Q: And the “C3 1-2” value (Mog. IIE or Mog. IE)?
A: No

Q: And the “C3 1-6” value (Mog. IIE or Mog. IE)?
A: Yes

Q: What about the “C24 1-2” value (Mog. IIE or Mog. IE) of the same molecule?
A: No

Q: What about the “C24 1-6” value (Mog. IIE or Mog. IE) of the same molecule?
A: Yes

B3: SEQ ID NO: 72: HvUGT B1 (Hordeum vulgare subsp. Vulgare) (protein)
chain: MAQAESERMRVVMFPWLAHGHINPYLELAKRLIASASGDHHLDVVVHLVSTPANLAPLAHHQTDRLRLVELHLPSLPDLPPALHTTKGLPARLMPVLKRACDLAAPRFGALLDELCPDILVYDFIQPWAPLEAEARGVPAFHFATCGAAATAFFIHCLKTDRPPSAFPFESISLGGVDEDAKYTALVTVREDSTALVAERDRLPLSLERSSGFVAVKSSADIERKYMEYLSQLLGKEIIPTGPLLVDSGGSEEQRDGGRIMRWLDGEEPGSVVFVSFGSEYFMSEHQMAQMARGLELSGVPFLWVVRFPNAEDDARGAARSMPPGFEPELGLVVEGWAPQRRILSHPSCGAFLTHCGWSSVLESMAAGVPMVALPLHIDQPLNANLAVELGAAAARVKQERFGEFTAEEVARAVRAAVKGKEGEAARRRARELQEVVARNNGNDGQIATLLQRMARLCGKDQAVPN
modifications: Hordeum vulgare
Q: What does the source list for B3?
A: bioconversion of Mog. IIE to Mog.III (Mog. II-E): able to catalyze bioconversion of Mog. IIE to Mog.III; C3 1-2 (Mog. IIE or Mog. IE): No; C3 1-6 (Mog. IIE or Mog. IE): Yes; C24 1-2 (Mog. IIE or Mog. IE): No; C24 1-6 (Mog. IIE or Mog. IE): No

B4: cmk: E. coli cmk (cytidylate kinase), complemented on plasmid (protein, listed as Escherichia coli)
chain: MTAIAPVITIDGPSGAGKGTLCKAMAEALQWHLLDSGAIYRVLALAALHHHVDVASEDALVPLASHLDVRFVSTNGNLEVILEGEDVSGEIRTQEVANAASQVAAFPRVREALLRRQRAFRELPGLIADGRDMGTVVFPDAPVKIFLDASSEERAHRRMLQLQEKGFSVNFERLLAEIKERDDRDRNRAVAPLVPAADALVLDSTTLSIEQVIEKALQYARQKLALA
Q: Which “improvement of total steviol glycoside conversion by gene complementation” value (steviol glycoside [2]) does the source give for B4 here?
A: improved overall glycosylation

B5: SEQ ID NO: 13: Synthetic UGT enzyme (MbUGT1,2.2) (protein)
chain: MATKGSSGMSLAERFWLTLSRSSLVVGRSCVEFEPETVPLLSTLRGKPITFLGLMPPLHEGRREDGEDATVRWLDAQPAKSVVYVALGSEVPLGVEKVHELALGLELAGTRFLWALRKPTGVSDADLLPAGFEERTRGRGVVATRWVPQMSILAHAAVGAFLTHCGWNSTIEGLMFGHPLIMLPIFGDQGPNARLIEAKNAGLQVARNDGDGSFDREGVAAAIRAVAVEEESSKVFQAKAKKLQEIVADMACHERYIDGFIQQLRSYKDDSGYSSSYAAAAGMHVVICPWLAFGHLLPCLDLAQRLASRGHRVSFVSTPRNISRLPPVRPALAPLVAFVALPLPRVEGLPDGAESTNDVPHDRPDMVELHRRAFDGLAAPFSEFLGTACADWVIVDVFHHWAAAAALEHKVPCAMMLLGSAEMIASIADERLEHAETESPAAAGQGRPAAAPTFEVARMKLIR
Q: With B5 as the molecule, how does the “bioconversion of Mog. IIE to Mog.III” value (Mog. II-E) read?
A: able to catalyze bioconversion of Mog. IIE to Mog.III

Q: And the “production of siamenoside from Mog. II-E” value (Mog. II-E)?
A: production of substantial amounts of siamenoside

Q: And the “C3 1-2” value (Mog. IIE or Mog. IE)?
A: Yes

Q: What about the “C3 1-6” value (Mog. IIE or Mog. IE) of the same molecule?
A: Yes

Q: What about the “C24 1-2” value (Mog. IIE or Mog. IE) of the same molecule?
A: Yes

Q: And the “C24 1-6” value (Mog. IIE or Mog. IE)?
A: Yes
